# Source: patent publication US8715697B2, “Genes associated with Leishmania parasite virulence” (priority 2001, dated 2014)
# How the values were obtained:
# mononuclear cells (PBMC) = test: Cytokines (IFN-β, IL-4) in PBMC culture supernatants, ELISA; type: cell-based, human; settings: 5 μg/ml LmPDI, 48 hours, small sample of individuals
# Protocol: Cytokines (IFN-β, IL-4) in PBMC culture supernatants were induced by incubating mononuclear cells for 48 hours with the same concentration of LmPDI and assaying by means of an ELISA test using human anti-IL-4 and anti-IFN-β monoclonal antibodies (Pharmingen, San Diego, Calif.).
# scrambled RNase A = test: Reactivation of scrambled RNase A in the presence of recombinant LmPDI protein (PDI activity); type: biochemical; settings: 1.4 μM recombinant LmPDI, 30 minutes at 25° C., compared with bovine PDI; FIG. 4
# Protocol: Scrambled RNase A (8 μM) was incubated in a buffer containing 4.5 mM (cCMP), 1 mM glutathione GSH, 0.2 mM glutathione disulfide GSSH, 2 mM EDTA and 100 mM Tris-HCl pH 8 in the presence of bovine serum albumin (BSA) (1.4 μM) as a negative control, bovine protein disulfide-isomerase (1.4 μM) as the positive control, or recombinant LmPDI (1.4 μM) for 30 minutes at 25° C. RNase A reactivation was determined by measuring the RNase A activity at 296 nm every 5 minutes for 30 minutes (Lyles and Gilbert, 1991).
# 20 mg of purified ribonuclease (RNase A) was scrambled at ambient temperature for 18 hours in a buffer containing 0.15 M of DTT, 6 M of guanidine-HCl and 0.1 M of Tris-HCl at a pH of 8.6 before being purified on a Sephadex G-25 column equilibrated in 0.01 M HCl. The concentration of scrambled RNase A fractions was determined using an extinction coefficient of 9200 M^−1 cm^−1 at 275 nm. Thu fractions were stored at −80° C. for two weeks.
# Scrambled RNase A (8 μM) was incubated in a buffer containing 4.5 mM cCMP, 1 mM glutathione GSH, 0.2 mM glutathione disulfide GSSH, 2 mM EDTA and 100 mM of Tris-HCl pH 8 in the presence of bovine serum albumin (BSA) (1.4 μM) as a negative control, bovine protein disulfide-isomerase (1.4 μM) as a positive control, or recombinant LmPDI (1.4 μM) for 30 minutes at 25° C. […]
# mononuclear cells = test: In vitro proliferation of mononuclear cells from individuals of a ZCL region, tritiated thymidine incorporation; type: cell-based, human; settings: 5 μg/ml LmPDI, 5 days of culture, immune individuals (positive SLA test); FIG. 8
# Protocol: The lymphomonocytary cells were recovered, washed by 3 successive centrifuge runs with RPMI-PS/Glu medium (30 ml then twice 10 ml) then counted and incubated at a concentration of 10^6 cells/ml of medium in the presence or absence of a concentration of 5 μg/ml of LmPDI. After 5 days of culture, lymphocyte stimulation was estimated by incorporating tritiated thymidine. The result is expressed in CPM.
# L. major LmPDI, because of its high expression during the infectious stage of the parasite, could be a target for a cellular immune response. In order to verify the pertinence of this hypothesis, the capacity of LmPDI to induce a cellular immune response was evaluated by means of experiments on the proliferation of mononuclear cells obtained from individuals having active lesions or ZCL antecedents.
# This study was carried out in 37 individuals living at El Guettar (southern Tunisia) for whom the results of the cellular proliferation test against total antigens from the parasite (SLA, a test indicating prior contact with the parasite) was available. These individuals were divided up as follows:
# Mononuclear cells comprising lymphocytes and monocytes were separated from peripheral blood by centrifuging on a Ficoll/Hypaque gradient (Pharmacia, Uppsala, Sweden).
molecule,measurement,setting,value
"LmPDI: recombinant protein disulfide isomerase of Leishmania major, SEQ ID No: 3, produced in E. coli; vaccine candidate (protein, His6 tag, vaccine candidate) MAEVQVATKDNFDKVVIGDLTLVKFYAPWCGHCKTLAPEFVKAADMLAGIATLAEVDCTKEESLAEKYEIKGFPTLYIFRNGEKVKIYDGPRTAAGIASYMKAHVGPSMKAISTAEELEELKKETFPVCVVKTASTDSEMASMITKVADSLRSQMNFVLVTDAAISPNDAMESVTVYRKNAEREAYTGATPMTAESVKSFLTSAVLDYFGELGQESFQKYMEANKDKPLGWVFIDKNTDSALKGSLVAVAEKYRSQVLLTYIDGDQYRPVSRQLGIPEDAKFPAFVVDFERRHHVMGTDTPVTSESVAAFVEKYVKGETKQTVMSDAIPAKETVNGLTTVVGQTFAKYTDGTQNVMLLFYAPWCGHCKKLHPVYDKVAKSFESENVIIAKMDATTNDFDREKFEVSGFPTIYFIPAGKPPIVYEGGRTADEIQVFVKSHLTASAAPSGGPSGNSEEEDLLEHHHHHH",IFN-β in the supernatant from stimulated cells,mononuclear cells (PBMC),significant amounts
same,IL-4 in the supernatant from stimulated cells,mononuclear cells (PBMC),absence
same,restoration of RNase A activity,scrambled RNase A,capable of restoring RNase A activity
same,proliferation of mononuclear cells,mononuclear cells,significant proliferation
